Measurements as given in paper PMC3288073, “Aptamers as a Sensitive Tool to Detect Subtle Modifications in Therapeutic Proteins”.

How the values were obtained:
[1] = target: thrombin (Thrombin JMI), bovine plasma (Bos taurus, UniProt P00735;P00735 318-366;367-625); test: ELISA; 1 mM Mg2+; ELISA: 25 mM Tris, 10 mM NaCl, 1 mM MgCl2, pH 7.4, RT, 1 h; aptamers heated 95 C 10 min and refolded at RT 20 min; Kd unit (nM) from Results text. BLI: Octet RE; conditions: protein: native; copies: 1;1
[2] = target: thrombin (Recothrom), recombinant human (Homo sapiens, UniProt P00734;P00734 315-363;364-622); test: ELISA (apparent Kd); 1 mM Mg2+; ELISA: 25 mM Tris, 10 mM NaCl, 1 mM MgCl2, pH 7.4, RT, 1 h; aptamers heated 95 C 10 min and refolded at RT 20 min; Kd unit (nM) from Results text. BLI: Octet RE

Binder	binding result [1]	Kd [2] [nM]
CAGTCCGTGGTAGGGCAGGTTGGGGTGACTTCGTGGAA (structured_DNA) [Aptamer 60-18/38]	no binding	1.48
GGTTGGTGTGGTTGG (structured_DNA) [Aptamer G15D]		1.48
Aptamer 30-14 (structured_DNA) DNA: AGATGCCTGTCGAGCATGCTGTTGTGGTAGGGTTAGGGATGGTAGCGGTTGTAGCTAAACTGCTTTGTCGACGG	no binding	2.75
TACCGTGGTAGGGAAGGTTGGAGTGTA (structured_DNA) [Aptamer 30-16/27]	no binding	1.54
Aptamer 30-8 (structured_DNA) DNA: AGATGCCTGTCGAGCATGCTGTGAATAGGTAGGGTCGGATGGGCTACGGTGTAGCTAAACTGCTTTGTCGACGGG	no binding	0.58
ACCCGTGGTAGGGTAGGATGGGGTGGT (structured_DNA) [Aptamer 30-38/27]	no binding	1.28
